Assay results: US20250066509A1

Assays:
Assay in all cases: cell-based or functional assay
[1] = molecular target: human FGFR2c/βKlotho receptor (human) (UniProt P21802)
[2] = molecular target: human FGFR1c/βKlotho receptor (human) (UniProt P11362)
[3] = molecular target: human FGFR3c/βKlotho receptor (human) (UniProt P22607)
[4] = molecular target: human FGFR4/βKlotho receptor (human) (UniProt P22455)
[5] = molecular target: cynomolgus monkey FGFR1c/βKlotho receptor (cynomolgus monkey)

Chain of human FGFR2c/βKlotho receptor (human) (P21802 22-821, chain 1 of 2): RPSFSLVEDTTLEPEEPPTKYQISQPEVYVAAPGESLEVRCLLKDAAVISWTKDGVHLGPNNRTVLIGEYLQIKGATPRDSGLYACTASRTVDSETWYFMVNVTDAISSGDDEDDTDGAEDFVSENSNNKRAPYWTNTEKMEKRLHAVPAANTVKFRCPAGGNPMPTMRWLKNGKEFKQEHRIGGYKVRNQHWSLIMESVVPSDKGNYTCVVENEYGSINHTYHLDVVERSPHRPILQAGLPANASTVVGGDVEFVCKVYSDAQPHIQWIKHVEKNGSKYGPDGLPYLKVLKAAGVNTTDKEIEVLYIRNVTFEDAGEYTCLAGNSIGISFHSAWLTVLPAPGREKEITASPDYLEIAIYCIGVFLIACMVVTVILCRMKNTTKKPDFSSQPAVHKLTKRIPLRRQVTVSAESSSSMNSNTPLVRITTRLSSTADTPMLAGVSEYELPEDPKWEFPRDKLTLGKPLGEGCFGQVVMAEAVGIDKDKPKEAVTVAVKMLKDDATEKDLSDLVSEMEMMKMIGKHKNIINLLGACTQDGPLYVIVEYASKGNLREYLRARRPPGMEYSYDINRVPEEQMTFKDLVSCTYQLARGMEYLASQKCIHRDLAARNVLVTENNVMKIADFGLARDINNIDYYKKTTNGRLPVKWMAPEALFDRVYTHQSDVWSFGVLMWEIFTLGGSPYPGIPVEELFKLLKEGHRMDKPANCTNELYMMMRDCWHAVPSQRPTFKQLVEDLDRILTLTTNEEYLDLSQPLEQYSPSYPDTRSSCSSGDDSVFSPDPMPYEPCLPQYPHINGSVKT
Chain of human FGFR2c/βKlotho receptor (human) (chain, as listed by the source, chain 2 of 2): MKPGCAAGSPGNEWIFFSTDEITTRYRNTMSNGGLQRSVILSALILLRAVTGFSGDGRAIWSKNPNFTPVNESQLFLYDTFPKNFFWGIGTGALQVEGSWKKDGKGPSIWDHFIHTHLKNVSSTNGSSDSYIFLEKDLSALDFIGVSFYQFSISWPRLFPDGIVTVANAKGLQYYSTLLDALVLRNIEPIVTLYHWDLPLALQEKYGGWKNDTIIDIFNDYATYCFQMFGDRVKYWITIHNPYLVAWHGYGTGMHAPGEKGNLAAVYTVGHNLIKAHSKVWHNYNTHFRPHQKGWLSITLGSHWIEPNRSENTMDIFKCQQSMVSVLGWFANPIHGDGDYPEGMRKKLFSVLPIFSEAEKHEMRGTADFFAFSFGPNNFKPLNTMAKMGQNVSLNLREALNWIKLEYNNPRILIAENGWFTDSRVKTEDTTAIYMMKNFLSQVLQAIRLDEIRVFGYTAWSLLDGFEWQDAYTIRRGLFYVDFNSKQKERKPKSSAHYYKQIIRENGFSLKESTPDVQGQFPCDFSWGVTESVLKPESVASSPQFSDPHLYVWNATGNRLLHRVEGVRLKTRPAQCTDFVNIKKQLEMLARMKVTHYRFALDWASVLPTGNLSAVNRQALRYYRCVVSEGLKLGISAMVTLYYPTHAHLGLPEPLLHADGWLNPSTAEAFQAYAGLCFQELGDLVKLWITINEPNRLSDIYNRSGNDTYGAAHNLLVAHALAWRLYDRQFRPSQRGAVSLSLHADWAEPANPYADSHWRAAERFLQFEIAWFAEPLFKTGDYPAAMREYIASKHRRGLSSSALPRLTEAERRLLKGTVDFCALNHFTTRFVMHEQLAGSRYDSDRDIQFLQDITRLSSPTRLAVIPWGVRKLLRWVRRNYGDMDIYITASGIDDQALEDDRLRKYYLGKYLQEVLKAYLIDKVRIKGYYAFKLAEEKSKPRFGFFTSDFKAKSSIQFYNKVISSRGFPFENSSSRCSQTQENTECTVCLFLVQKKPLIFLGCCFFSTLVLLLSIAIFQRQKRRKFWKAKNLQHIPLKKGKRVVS
Chain of human FGFR4/βKlotho receptor (human) (P22455 22-802, chain 1 of 2): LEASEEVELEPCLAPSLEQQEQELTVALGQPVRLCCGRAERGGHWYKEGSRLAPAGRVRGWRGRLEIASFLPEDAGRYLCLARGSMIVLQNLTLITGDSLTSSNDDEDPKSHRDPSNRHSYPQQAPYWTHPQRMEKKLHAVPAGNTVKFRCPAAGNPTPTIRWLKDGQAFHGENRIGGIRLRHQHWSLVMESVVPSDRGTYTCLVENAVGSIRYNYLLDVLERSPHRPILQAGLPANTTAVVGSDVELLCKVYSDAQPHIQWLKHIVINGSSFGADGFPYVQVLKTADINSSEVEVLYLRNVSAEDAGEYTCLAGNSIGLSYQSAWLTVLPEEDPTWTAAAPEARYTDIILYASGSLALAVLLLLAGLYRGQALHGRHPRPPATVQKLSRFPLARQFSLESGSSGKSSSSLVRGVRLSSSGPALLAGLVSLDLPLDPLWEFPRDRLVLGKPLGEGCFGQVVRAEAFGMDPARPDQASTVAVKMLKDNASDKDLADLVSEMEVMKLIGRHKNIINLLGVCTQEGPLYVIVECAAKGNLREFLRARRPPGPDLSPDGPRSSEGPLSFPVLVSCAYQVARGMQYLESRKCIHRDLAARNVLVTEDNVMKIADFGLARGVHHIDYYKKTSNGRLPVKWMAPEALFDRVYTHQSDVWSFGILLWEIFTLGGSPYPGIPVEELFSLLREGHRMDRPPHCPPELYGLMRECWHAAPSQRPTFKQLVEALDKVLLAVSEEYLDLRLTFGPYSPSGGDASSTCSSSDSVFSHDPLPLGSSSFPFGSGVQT
Chain of human FGFR4/βKlotho receptor (human) (chain, as listed by the source, chain 2 of 2): as the sequence (chain, as listed by the source, chain 2 of 2) above
Chain of human FGFR3c/βKlotho receptor (human) (P22607 23-806, chain 1 of 2): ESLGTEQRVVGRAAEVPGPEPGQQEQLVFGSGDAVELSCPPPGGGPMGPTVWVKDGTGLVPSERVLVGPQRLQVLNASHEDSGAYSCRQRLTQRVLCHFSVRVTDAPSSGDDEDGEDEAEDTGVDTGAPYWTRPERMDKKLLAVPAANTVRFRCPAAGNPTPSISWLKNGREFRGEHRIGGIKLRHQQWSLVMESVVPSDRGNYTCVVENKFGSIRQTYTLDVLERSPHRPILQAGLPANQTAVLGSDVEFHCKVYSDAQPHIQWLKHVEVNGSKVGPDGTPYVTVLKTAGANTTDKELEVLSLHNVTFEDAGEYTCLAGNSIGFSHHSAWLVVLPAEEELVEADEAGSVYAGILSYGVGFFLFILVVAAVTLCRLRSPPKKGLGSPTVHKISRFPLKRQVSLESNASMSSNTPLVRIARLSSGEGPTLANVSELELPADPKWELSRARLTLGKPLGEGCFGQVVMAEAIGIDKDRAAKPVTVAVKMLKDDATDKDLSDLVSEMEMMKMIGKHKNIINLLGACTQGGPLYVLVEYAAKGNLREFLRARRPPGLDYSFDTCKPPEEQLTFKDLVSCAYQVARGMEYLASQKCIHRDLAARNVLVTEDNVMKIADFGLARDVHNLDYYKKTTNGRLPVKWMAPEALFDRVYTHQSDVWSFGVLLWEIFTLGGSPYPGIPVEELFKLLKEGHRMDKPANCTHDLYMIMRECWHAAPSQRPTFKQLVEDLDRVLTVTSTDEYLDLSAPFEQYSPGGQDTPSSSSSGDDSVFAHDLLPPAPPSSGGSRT
Chain of human FGFR3c/βKlotho receptor (human) (chain, as listed by the source, chain 2 of 2): as the sequence (chain, as listed by the source, chain 2 of 2) above
Chain of human FGFR1c/βKlotho receptor (human) (P11362 22-822, chain 1 of 2): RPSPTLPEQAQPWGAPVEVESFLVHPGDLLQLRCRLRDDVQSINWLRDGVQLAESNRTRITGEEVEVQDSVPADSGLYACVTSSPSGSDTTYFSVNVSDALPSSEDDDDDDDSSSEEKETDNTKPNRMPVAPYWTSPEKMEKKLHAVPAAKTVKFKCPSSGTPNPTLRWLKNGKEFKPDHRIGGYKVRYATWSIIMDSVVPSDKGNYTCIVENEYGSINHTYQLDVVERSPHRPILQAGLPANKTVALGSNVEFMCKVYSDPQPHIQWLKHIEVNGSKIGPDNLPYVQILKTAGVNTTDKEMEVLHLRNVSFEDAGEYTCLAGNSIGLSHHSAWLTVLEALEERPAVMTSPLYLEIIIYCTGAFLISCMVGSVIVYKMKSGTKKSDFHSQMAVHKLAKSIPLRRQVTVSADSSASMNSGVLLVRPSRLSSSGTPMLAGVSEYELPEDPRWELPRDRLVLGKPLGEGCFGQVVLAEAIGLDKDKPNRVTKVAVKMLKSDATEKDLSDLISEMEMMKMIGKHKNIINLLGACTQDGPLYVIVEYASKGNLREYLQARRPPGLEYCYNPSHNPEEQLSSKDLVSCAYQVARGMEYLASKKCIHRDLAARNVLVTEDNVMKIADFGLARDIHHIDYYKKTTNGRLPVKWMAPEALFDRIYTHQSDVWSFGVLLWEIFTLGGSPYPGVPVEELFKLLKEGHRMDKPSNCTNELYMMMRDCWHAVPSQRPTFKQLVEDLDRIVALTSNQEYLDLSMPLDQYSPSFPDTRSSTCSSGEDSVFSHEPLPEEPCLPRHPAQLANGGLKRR
Chain of human FGFR1c/βKlotho receptor (human) (chain, as listed by the source, chain 2 of 2): as the sequence (chain, as listed by the source, chain 2 of 2) above

FGF19 (from UniProt O95750 25-216) (ligand)
EC50, luciferase reporter-based assay (receptor activation) [1]: 0.27 nM | EC50, luciferase reporter-based assay (receptor activation) [2]: 0.41 nM | EC50, luciferase reporter-based assay (receptor activation) [3]: 0.3 nM | EC50, luciferase reporter-based assay (receptor activation) [4]: 0.05 nM | EC50, luciferase reporter-based assay (receptor activation) [5]: 2.23 nM
